From patent US20250011363A1, “OPTIMIZED SHORTENED PEPTIDE THAT BINDS TO ACETYLCHOLINE RECEPTOR, AND USE THEREOF” (SKINMED CO., LTD., priority 2021, published 2025)

The substances below were run against acetylcholine receptor (Homo sapiens, UniProt P02708) (assay: SPR binding affinity (RU) of optimized 5mer/6mer/7mer peptides, Examples 6-7). Settings: SPR, Resonance Units; peptides tested at 10 μM; 6mer-1 Bottom sequence.
Procedure, shortened: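 Peptides were tested at 10 μM by surface plasmon resonance against the receptor, with binding reported as response units. Library sequences were built from frequent (top) or infrequent (bottom) amino acid combinations in 5mer, 6mer-1 and 6mer-2 series.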

Sequence of acetylcholine receptor (P02708 21-457): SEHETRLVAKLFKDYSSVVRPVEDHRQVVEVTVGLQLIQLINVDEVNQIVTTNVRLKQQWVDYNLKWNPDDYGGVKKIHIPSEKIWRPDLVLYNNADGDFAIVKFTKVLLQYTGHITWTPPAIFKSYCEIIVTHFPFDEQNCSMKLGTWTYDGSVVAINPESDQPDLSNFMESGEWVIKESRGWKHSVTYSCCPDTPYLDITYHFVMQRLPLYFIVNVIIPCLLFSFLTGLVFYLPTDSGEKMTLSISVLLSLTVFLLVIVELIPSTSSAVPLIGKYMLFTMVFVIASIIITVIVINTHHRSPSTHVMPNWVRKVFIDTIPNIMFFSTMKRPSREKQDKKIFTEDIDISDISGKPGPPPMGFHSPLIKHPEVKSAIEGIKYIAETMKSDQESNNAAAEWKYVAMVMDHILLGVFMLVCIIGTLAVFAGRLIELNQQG

Q: Which Binding affinity does the source give for 6mer-1-998 (KRNPVK) here?
A: 41 Ru

Q: How did the Binding affinity turn out when 6mer-1-999 (RKATNR) was run?
A: 24 Ru

Q: How did the Binding affinity turn out when 6mer-1-1000 (RKMSHR) was run?
A: 28 Ru

Q: With 6mer-1-1002 (KRIHMK) as the substance, how does the Binding affinity read?
A: 29 Ru

Q: With 6mer-1-1003 (RKYCHR) as the substance, how does the Binding affinity read?
A: 24 Ru

Q: Which Binding affinity does the source give for 6mer-1-1004 (RKHSHR) here?
A: 41 Ru

Q: How did the Binding affinity turn out when 6mer-1-1005 (RKPPDR) was run?
A: 26 Ru

Q: How did the Binding affinity turn out when 6mer-1-1006 (KKDKIK) was run?
A: 25 Ru

Q: Which Binding affinity does the source give for 6mer-1-1007 (RKPTDR) here?
A: 39 Ru

Q: Which Binding affinity does the source give for 6mer-1-1008 (RKPWAR) here?
A: 21 Ru

Q: Which Binding affinity does the source give for 6mer-1-1009 (RKMSKK) here?
A: 29 Ru

Q: With 6mer-1-1010 (KKPKHK) as the substance, how does the Binding affinity read?
A: 33 Ru

Q: With 6mer-1-1011 (RKKPEK) as the substance, how does the Binding affinity read?
A: 35 Ru

Q: 6mer-1-1012 (RRAWVR) was tested. Which Binding affinity did it give?
A: 35 Ru

Q: How did the Binding affinity turn out when 6mer-1-1013 (KKTTNK) was run?
A: 29 Ru

Q: For 6mer-1-1014 (KKNAWR), which Binding affinity is on record?
A: 25 Ru

Q: For 6mer-1-1015 (KREEWR), which Binding affinity is on record?
A: 26 Ru

Q: For 6mer-1-1016 (KRHTHR), which Binding affinity is on record?
A: 21 Ru

Q: With 6mer-1-1017 (KRANMK) as the substance, how does the Binding affinity read?
A: 37 Ru

Q: Which Binding affinity does the source give for 6mer-1-1018 (KKTAFK) here?
A: 28 Ru

Q: How did the Binding affinity turn out when 6mer-1-1019 (KRDAWR) was run?
A: 37 Ru

Q: For 6mer-1-1020 (KKMEAK), which Binding affinity is on record?
A: 38 Ru

Q: For 6mer-1-1021 (KKHDIK), which Binding affinity is on record?
A: 41 Ru

Q: Which Binding affinity does the source give for 6mer-1-1022 (RKDTVR) here?
A: 22 Ru

Q: Which Binding affinity does the source give for 6mer-1-1023 (KRIMHK) here?
A: 39 Ru

Q: With 6mer-1-1024 (RKTEIR) as the substance, how does the Binding affinity read?
A: 36 Ru

Q: Which Binding affinity does the source give for 6mer-1-1025 (KRFAKR) here?
A: 33 Ru

Q: Which Binding affinity does the source give for 6mer-1-1026 (RKKCER) here?
A: 30 Ru

Q: With 6mer-1-1027 (KKPWHK) as the substance, how does the Binding affinity read?
A: 22 Ru

Q: How did the Binding affinity turn out when 6mer-1-1028 (RRHCWR) was run?
A: 36 Ru

Q: With 6mer-1-1029 (RRCMAK) as the substance, how does the Binding affinity read?
A: 40 Ru

Q: With 6mer-1-1030 (KKFCFR) as the substance, how does the Binding affinity read?
A: 30 Ru

Q: 6mer-1-1031 (RKDTHK) was tested. Which Binding affinity did it give?
A: 38 Ru

Q: For 6mer-1-1032 (KKTSMR), which Binding affinity is on record?
A: 27 Ru

Q: Which Binding affinity does the source give for 6mer-1-1033 (KRHMVK) here?
A: 30 Ru

Q: For 6mer-1-1034 (KKASDR), which Binding affinity is on record?
A: 24 Ru

Q: 6mer-1-1035 (RRCHHR) was tested. Which Binding affinity did it give?
A: 34 Ru

Q: With 6mer-1-1036 (KKITFR) as the substance, how does the Binding affinity read?
A: 21 Ru

Q: For 6mer-1-1037 (RRKNNR), which Binding affinity is on record?
A: 36 Ru

Q: 6mer-1-1038 (RRKKIR) was tested. Which Binding affinity did it give?
A: 21 Ru

Q: How did the Binding affinity turn out when 6mer-1-1039 (KRADIK) was run?
A: 40 Ru

Q: With 6mer-1-1040 (KRIEFR) as the substance, how does the Binding affinity read?
A: 28 Ru

Q: With 6mer-1-1041 (RKEHGK) as the substance, how does the Binding affinity read?
A: 23 Ru

Q: With 6mer-1-1042 (KKITAR) as the substance, how does the Binding affinity read?
A: 40 Ru

Q: How did the Binding affinity turn out when 6mer-1-1043 (KRAAHR) was run?
A: 30 Ru

Q: How did the Binding affinity turn out when 6mer-1-1044 (KKHHIR) was run?
A: 24 Ru

Q: Which Binding affinity does the source give for 6mer-1-1045 (KKTPGR) here?
A: 27 Ru

Q: How did the Binding affinity turn out when 6mer-1-1046 (RKDPHR) was run?
A: 38 Ru

Q: For 6mer-1-1047 (RKATDK), which Binding affinity is on record?
A: 30 Ru

Q: With 6mer-1-1048 (RRCMMK) as the substance, how does the Binding affinity read?
A: 36 Ru

Q: How did the Binding affinity turn out when 6mer-1-1049 (KKDHKK) was run?
A: 31 Ru

Q: 6mer-1-1050 (KKMEDR) was tested. Which Binding affinity did it give?
A: 38 Ru

Q: Which Binding affinity does the source give for 6mer-1-1051 (KKKSFK) here?
A: 43 Ru

Q: Which Binding affinity does the source give for 6mer-1-1052 (KRHWIR) here?
A: 33 Ru

Q: Which Binding affinity does the source give for 6mer-1-1053 (RKYTPK) here?
A: 27 Ru

Q: 6mer-1-1054 (RRMKVK) was tested. Which Binding affinity did it give?
A: 37 Ru

Q: How did the Binding affinity turn out when 6mer-1-1055 (KRCNDK) was run?
A: 40 Ru

Q: Which Binding affinity does the source give for 6mer-1-1056 (RRNTAK) here?
A: 27 Ru

Q: With 6mer-1-1057 (KRKPVR) as the substance, how does the Binding affinity read?
A: 43 Ru

Q: 6mer-1-1058 (KRFPWR) was tested. Which Binding affinity did it give?
A: 21 Ru

Q: With 6mer-1-1059 (RRETVK) as the substance, how does the Binding affinity read?
A: 39 Ru

Q: For 6mer-1-1060 (KRYNVR), which Binding affinity is on record?
A: 21 Ru

Q: Which Binding affinity does the source give for 6mer-1-1061 (RRISIR) here?
A: 41 Ru

Q: Which Binding affinity does the source give for 6mer-1-1062 (RRICMR) here?
A: 27 Ru

Q: 6mer-1-1063 (KKIDHK) was tested. Which Binding affinity did it give?
A: 25 Ru

Q: For 6mer-1-1064 (RKPTAK), which Binding affinity is on record?
A: 41 Ru

Q: With 6mer-1-1065 (KRDKAK) as the substance, how does the Binding affinity read?
A: 23 Ru

Q: How did the Binding affinity turn out when 6mer-1-1066 (RKEDVK) was run?
A: 23 Ru

Q: For 6mer-1-1067 (RRKHWK), which Binding affinity is on record?
A: 38 Ru

Q: With 6mer-1-1068 (KRYHIR) as the substance, how does the Binding affinity read?
A: 31 Ru

Q: For 6mer-1-1069 (KKIWAR), which Binding affinity is on record?
A: 23 Ru

Q: Which Binding affinity does the source give for 6mer-1-1070 (KKTCDK) here?
A: 24 Ru

Q: With 6mer-1-1071 (RKTKAK) as the substance, how does the Binding affinity read?
A: 38 Ru

Q: Which Binding affinity does the source give for 6mer-1-1072 (KKCTPR) here?
A: 36 Ru

Q: 6mer-1-1073 (RKYMWK) was tested. Which Binding affinity did it give?
A: 27 Ru

Q: With 6mer-1-1074 (KRTCGR) as the substance, how does the Binding affinity read?
A: 24 Ru

Q: How did the Binding affinity turn out when 6mer-1-1075 (KKPSVK) was run?
A: 38 Ru

Q: How did the Binding affinity turn out when 6mer-1-1076 (RKKEPK) was run?
A: 43 Ru

Q: With 6mer-1-1077 (RRKWGR) as the substance, how does the Binding affinity read?
A: 24 Ru
